In patent publication CN114702578A (BAISI MEDICAL DIAGNOSTICS TECH BEIJING CO LTD, dated 2022):

Molecular target: T1, 新型冠状病毒野生型Spike RBD蛋白 (新型冠状病毒野生型 (SARS-CoV-2 wild type), UniProt P0DTC2 319-537)
T1 construct: domain: Spike RBD
Assay: ELISA binding experiment (Fig. 3)

B1: 克隆号为3A7C12的抗体 (antibody, V domains shown)
VH: EVQLVESGGGLVKPGGSLRLSCAASGFTFSSYSMNWVRQAPGKGLEWVSSISSGSSYIYFADSVKGRFTISRDNAKNSLFLQMNSLRAEDTATYYCARAPLGYDSSGYFTMYYFDYWGQGTLVTVSS
VL: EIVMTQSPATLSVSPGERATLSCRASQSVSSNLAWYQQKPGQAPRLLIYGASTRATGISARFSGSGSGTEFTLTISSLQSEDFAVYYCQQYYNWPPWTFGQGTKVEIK
notes: also called 3A7C12克隆号抗体
**Q.** Does B1 bind?
**A.** Result: no binding
